This note sets out measurements from patent publication US20240101645A1 (HENRY M JACKSON FOUNDATION FOR THE ADVANCEMENT OF MILITARY …, published 2024).

Substitutions are numbered along the chain they refer to. Some results are limits rather than exact numbers.

To fix the notation:
T1: MERS-CoV spike antigens (bead panel) (MERS-CoV, UniProt K9N5Q8 18-1296)
T1 sequence: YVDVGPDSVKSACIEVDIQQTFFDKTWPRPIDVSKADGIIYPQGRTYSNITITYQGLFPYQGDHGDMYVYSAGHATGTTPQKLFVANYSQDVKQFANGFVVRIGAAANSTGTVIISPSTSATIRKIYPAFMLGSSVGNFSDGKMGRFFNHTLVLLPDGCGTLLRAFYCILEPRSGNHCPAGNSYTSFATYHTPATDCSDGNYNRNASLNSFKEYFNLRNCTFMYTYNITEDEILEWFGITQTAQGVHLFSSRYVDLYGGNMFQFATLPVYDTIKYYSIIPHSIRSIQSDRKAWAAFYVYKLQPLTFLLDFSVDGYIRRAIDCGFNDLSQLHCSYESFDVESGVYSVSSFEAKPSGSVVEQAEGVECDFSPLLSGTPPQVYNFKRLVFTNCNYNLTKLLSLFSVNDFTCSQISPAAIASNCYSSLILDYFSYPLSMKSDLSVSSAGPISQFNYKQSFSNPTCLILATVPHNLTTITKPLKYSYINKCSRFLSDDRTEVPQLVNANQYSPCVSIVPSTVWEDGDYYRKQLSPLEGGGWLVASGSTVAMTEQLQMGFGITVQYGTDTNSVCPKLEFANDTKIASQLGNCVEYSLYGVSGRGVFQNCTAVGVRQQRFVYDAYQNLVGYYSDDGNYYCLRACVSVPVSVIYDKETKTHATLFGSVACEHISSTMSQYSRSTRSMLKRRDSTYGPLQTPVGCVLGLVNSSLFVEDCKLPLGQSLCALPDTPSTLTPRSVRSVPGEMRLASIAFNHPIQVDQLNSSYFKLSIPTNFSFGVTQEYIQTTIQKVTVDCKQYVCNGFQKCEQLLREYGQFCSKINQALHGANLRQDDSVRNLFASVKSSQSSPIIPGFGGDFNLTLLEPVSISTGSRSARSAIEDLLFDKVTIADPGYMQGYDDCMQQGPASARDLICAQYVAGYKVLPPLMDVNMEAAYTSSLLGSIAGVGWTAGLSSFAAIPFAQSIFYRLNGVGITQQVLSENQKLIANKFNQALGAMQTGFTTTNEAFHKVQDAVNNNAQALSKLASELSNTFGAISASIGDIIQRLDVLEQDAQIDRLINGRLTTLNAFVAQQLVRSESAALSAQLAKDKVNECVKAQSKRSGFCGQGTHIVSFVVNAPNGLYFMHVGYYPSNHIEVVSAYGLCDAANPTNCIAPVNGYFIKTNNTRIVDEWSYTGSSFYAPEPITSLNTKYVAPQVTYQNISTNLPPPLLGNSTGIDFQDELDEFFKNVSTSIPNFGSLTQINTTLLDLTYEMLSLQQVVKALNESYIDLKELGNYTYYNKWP

B1: COV_2205 (antibody, V domains shown)
VH: EVQLVESGGGLVKPGGSLRLSCAASGFTFSDYYMIWIRQAPGEGLEWVSYISSRSSYTNYADSVKGRFTISRDNARNSLYLQMNSLRAEDTAVYYCARGQHDLLTGYYSWAYFDYWGQGTLVTVSS
VL: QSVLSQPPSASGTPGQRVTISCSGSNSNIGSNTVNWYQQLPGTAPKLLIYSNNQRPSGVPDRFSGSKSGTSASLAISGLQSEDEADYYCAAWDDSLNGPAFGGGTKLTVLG
notes: human IgG1
B2: COV_1118 (antibody, V domains shown)
VH: EVQLVESGGGLVKPGGSLRLSCAASGFSFSNYNMNWVRQAPGKGLEWVSYISSSSSYIYYADSVKGRFTISRDNAKNSLYLQMNSLRGEDTAVYSCAREASGAYYFDRSGYFDYWGQGTLVTVSP
VL: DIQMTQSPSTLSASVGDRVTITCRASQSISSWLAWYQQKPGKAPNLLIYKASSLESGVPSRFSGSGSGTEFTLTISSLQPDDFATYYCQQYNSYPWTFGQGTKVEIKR
notes: human IgG1
B3: COV_1154 (antibody, V domains shown)
VH: B2 VH with S28R, N31D
VL: DIQMTQSPSTLSASVGDRVTITCRASQSISSWLAWYQQKPGKAPNLLIYKASSLESGVPSRFSGSGSGTEFTLTISSLQPYDFATYYCQQYNSYPWAFGQGTKVEMKR
notes: human IgG1
B4: COV_1136 (antibody, V domains shown)
VH: B2 VH with S28T, N31D, Y32C, Y50S, S54R, G88A
VL: B3 VL with Y81D, S93T, A97T, M106I
notes: human IgG1
B5: COV_1184 (antibody, V domains shown)
VH: QVQLQQWGAGLLKPSETLSLTCAVYGGSFSGYYWSWIRQPPGKGLEWIGEINHSGNTTYNPSLKSRVTISVDTSKNQFSLKLSSVTAADTAVYYCARGLVITYYYDSSGKPFDPWGQGTLVTVSS
VL: not shown
notes: human IgG1
B6: COV_3053 (antibody, V domains shown)
VH: EVQLVESGGGLVQPGRSLRLSCTASGFTLGDYAMTWVRQAPGKGLEWLGIIRNKRYGETKQYAASVKGRFTFSRDDSKGIGYLQRLSLKIEDTGVYYCTREHIVRDDAFDVWGQGTTVTVSS
VL: DIVMTQSPDSLAVSLGERATINCKSSQSVLYSSNNKNYIAWYQQRPGQPPKLLIYWTSTRASGVPDRFSGSGSGTDFALTISSLQAEDVAVYYCQQYYTIPRTFGQGTKVEIK
notes: human IgG1
B7: COV_1177 (antibody, V domains shown)
VH: QVQLVESGGGVVQPGRSLRLSCAASGFTFSSYGMHWVRQAPGKGLEWVAVIWYDGSNKYYADSVKGRFTISRDNSKNTLYLQMNSLRAEDTAVYYCARDPLGAVAGYFDYWGQGTLVTVSS
VL: SYVLTQPPSVSVAPGQTARITCGGNNIGSKSVHWYQQKPGQAPVLVVYDDSDRPSGIPERFSGSNSGNTATLTISRVEAGDEADYYCQVWDSSSDHHWVFGGGTKLTVLG
notes: human IgG1
B8: COV_2032 (antibody, V domains shown)
VH: EVQLVESGGGLVQPGGSLRLSCAASGFTFTTYWMHWVRQAPGKGLVWVSRIKTDGSSTNYADSVKGRFTISRDNAKNMLYLQMNSLRAEDTAVYYCAREGPVSIVYFDYWGQGTLVTVSS
VL: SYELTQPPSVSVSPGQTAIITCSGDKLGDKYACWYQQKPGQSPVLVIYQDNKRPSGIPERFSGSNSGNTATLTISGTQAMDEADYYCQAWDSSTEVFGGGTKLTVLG
notes: human IgG1
B9: COV_1145 (antibody, V domains shown)
VH: QVQLVESGGGVVQPGRSLRLSCAASGFTFSSYGMHWVRQAPGKGLEWVAVIWYDGSNKYYADSVKGRFTISRDNSKNTLYLQMNSLRVEDTAVYYCAREGQLGATGLDCWGQGTLVSVSS
VL: SYELTQPPSVSVSPGQTARITCSGDALPKKYAYWYQQKSGQAPVLVIYEDSKRPSGIPERFSGSSSGTMATLTISGAQVEDEADYYCYSTDNSGNHWVFGGGTKLTVLG
notes: human IgG1
B10: COV_2215 (antibody, V domains shown)
VH: EVQLVESGGGLVKPGGSLRLSCAASGFTFSHAWMSWVRQAPGKGLEWVGRIKSKTDGGTADYAAPVKGRFTISRDDSKNTLYLQMNSLKTEDTAVYYCATIRYYYDSSAYLNDAFDIWGQGTMVTVSS
VL: B9 VL with N92S, W97R, G100A
notes: human IgG1
B11: COV_3069 (antibody, V domains shown)
VH: EVQLVESGGGLVKPGGSLRLSCAASGFTFGSYTMNWVRQAPGKGLEWVSSIDTTSSSIYYADSLKGRFAISRDSAKNSLYLQMNRLRAEDTAVYYCARGNGHSYDSSGYHYGMYFDYWGQGTLVTVSS
VL: DIQMTQSPSTLSASVGDRVTITCRASQSISRWLAWYQQKPGKAPKLLIYEVSSLENGVPSRFSGSRSGTEFTLTISSLQPDDFAIYYCQQYNTYSRTFGQGTKVEIKR
notes: human IgG1
B12: COV_2169 (antibody, V domains shown)
VH: EVQLVESGGGVVQPGRSLRLSCAASGFTFSRYAMHWVRQAPGKGLEWVAVISYEGSNKYYADSVKGRFTISRNNSNNTLSLQMNSLRPDDTAVYYCVRSGGHYFDAFDLWGQGTMVTVSS
VL: EIVLTQSPGTLSLSPGERATLSCRASQSVSRNYVAWYQQKPGQAPRLLIYGASSRATGIPDRFSGSGSGTDFTLTISRLEPEDFALYYCQQYGSSYTFGQGTKLEIKR
notes: human IgG1
B13: COV_1025 (antibody, V domains shown)
VH: QVQLVESGGGVVQPGRSLRLSCAASGFTFNTYAMHWVRQAPGKGLEWVAIISYDGGNKYYADSMKGRFTISRDNSKNTLYLQMNSLRAEDTAVYYCARARTGNYYYGMDVWGQGTTVTVSS
VL: not shown
notes: human IgG1
B14: COV_2027 (antibody, V domains shown)
VH: EVQLVESGGGLIQPGGSLRLSCAASGFSVSTNYMSWVRQAPGKGLEWVSIIYSGGGTYYADSVKGRFTISRDTSENTLYLQMNSLRAEDTAVYYCASFLVGATGQPWYWGQGTLVTVSS
VL: not shown
notes: human IgG1
B15: COV_2100 (antibody, V domains shown)
VH: EVQLVESGGGLVQPGGSLRLSCAASGFTFSSYDMYWVRQATGKGLEWVSAIGTAGDTYYPGSVKGRFTISRENAKNSLYLRMNSLRAGDTAVYFCARADKNTAMFFDYWGQGTLVTVSS
VL: DIQMTQSPSSLSASVGDRVTITCRASQNINNFLHWYQQKPGNAPKLLIYAASTLQSGVPSRFSGSGSGTDFTLTISSLQPEDFATYYCQQSYSTPGGTFGGGTKVEIK
notes: human IgG1
B16: COV_2193 (antibody, V domains shown)
VH: QVQLVQSGAEVKKPGASVKVSCKVSGYTLTDLSMHWVRQTPGKGLEWMGGFDAEDGETIYAQNFQGRVTMTEDTSIDVAYMELSSLRSEDTAVYYCATGSVGPDYWGQGTLVTVSS
VL: SSELTQDPAVSVALGQTVRITCQGDSLRSYYASWFQQKPGQAPVLVIYLKNDRPSGIPDRFSGSSSGNTASLTITGAQAEDEADYYCNSRDSSGNHQVFGGGTKLTVL
notes: human IgG1
B17: COV_2196 (antibody, V domains shown)
VH: QVQLVQSGAEVKKPGASVKVSCKVSGYTLIELSMHWVRQAPGKGLEWMGGFDPEDAKTIYAQKFQGRVTMTEDTSTDTAYMELSSLTFEDTAVYYCATTPAFMAAAGDFDYWGQGTLVTVSS
VL: QPVLTQPSSVSVSPGQTATITCSGDVLAKKYARWFQQKPGQAPMLVIYKDTERPSGIPERFSGSSSGTTVTLTINGAQVEDEADYYCYSAAAWVFGGGTKLTVL
notes: human IgG1
B18: COV_2134 (antibody, V domains shown)
VH: EVQLVESGGGVVQPGRSLRLSCAASGFIFSSYGMYWVRQAPGKGLEWVAVIWYDGSNKYYADSVKGRFTISRDNSKNTLYLQMNSLRAEDTAVYYCARDLSSSSGWDDYYYYYGMDVWGQGTTVTVSS
VL: not shown
notes: human IgG1
B19: COV_2057 (antibody, V domains shown)
VH: EVQLVQSGAEVKKPGESLKISCKGSGYSFISYWIAWVRQMPGKGLEWMGIIYPGDSDTTYSPSFQGQVTISADKSISTAYLQWSSLKASDTAIYYCARLLYYSDSSPLDSWGQGTLVTVSS
VL: DIQMTQSPSSLSASVGDRVTITCRASQSISTYLNWYQQKPGKAPNLLIYAASSLQSGVPSRFSGSGSGTDFTLTISSLQPEDFATYYCQQSHSTPRTFGPGTKVDIK
notes: human IgG1

For the first assay, the target named is T1, MERS-CoV spike antigens (bead panel). The assay can be described thus: multiplex bead assay.
As for B1, the binding result is reported as “no binding”. On the same count and under the same terms, under B2 stands “no binding”. As to B3, the binding result is reported as “no binding”. As for B4, the binding result is reported as “no binding”. Turning to B5, the binding result is reported as “no binding”. Turning to B6, the binding result is reported as “no binding”. Still for that read-out and setting: the same measure for B7: “no binding”; for B8: “no binding”.

For the molecule B9, the binding result is “no binding”.

Take B10: the binding result is on record as “no binding”. For the molecule B11, the binding result is reported as “no binding”. As to B12, the binding result is “no binding”. Same read-out and setting: the same measure for B13: “no binding”.

Another assay concerns the target SARS-CoV-2 S on pseudovirions (Wuhan Hu-1 / IL1/2020, last 18 amino acids removed) (SARS-CoV-2, UniProt P0DTC2 14-1273). The assay can be described thus: cell-based or functional assay.
Turning to B14, the “Mean IC50, pSV neutralization” value is 0.16 µg/ml and the “Mean IC80, pSV neutralization” value stood at 0.45 µg/ml. For B15 the same measures were 23 µg/ml and at least 25 µg/ml.

Regarding B16, the “Mean IC50, pSV neutralization” value was at least 25 µg/ml and the “Mean IC80, pSV neutralization” value was at least 25 µg/ml.

As for B17, the “Mean IC50, pSV neutralization” value was 0.02 µg/ml and the “Mean IC80, pSV neutralization” value worked out at 23.4 µg/ml. Consider B18, for which the “Mean IC50, pSV neutralization” value worked out at 16.1 µg/ml and the “Mean IC80, pSV neutralization” value was at least 25 µg/ml. For B19 the same measures were 0.97 µg/ml and 8.99 µg/ml.
